US20160083466A1 (Regeneron, published 2016)

Tests used:
[1] = biological target: T1, human IL-25 expressed with a C-terminal myc-myc-hexahistidine tag (human); assay: SPR Biacore, captured mAb, 37°C
T1 construct: also called human IL-25-MMH; hIL-25-MMH
T1 chain: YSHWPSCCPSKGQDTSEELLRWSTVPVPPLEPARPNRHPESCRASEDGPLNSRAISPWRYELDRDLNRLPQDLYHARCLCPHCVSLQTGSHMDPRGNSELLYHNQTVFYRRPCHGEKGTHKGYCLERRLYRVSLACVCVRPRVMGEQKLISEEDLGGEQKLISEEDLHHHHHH
Description: (§1) Equilibrium dissociation constants (KD values) for IL-25 binding to purified anti-IL-25 antibodies were determined using a real-time surface plasmon resonance biosensor assay on a Biacore 4000 instrument (GE Healthcare). […] All the IL-25 reagents were expressed with a C-terminal myc-myc-hexahistidine tag (referred to herein as “IL-25-MMH”). […] Kinetic association (kₐ) and dissociation (kd) rate constants were determined by fitting the real-time sensorgrams to a 1:1 binding model using Scrubber 2.0c curve fitting software.

[2] = biological target: T2, monkey IL-25 expressed with a C-terminal myc-myc-hexahistidine tag (M. fascicularis (cynomolgus monkey)); assay: SPR Biacore, captured mAb, 25°C;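 note: Real-time surface plasmon resonance on a Biacore 4000, with IL-25-MMH binding to purified anti-IL-25 antibodies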
T2 construct: also called monkey IL-25-MMH; MfIL-25-MMH
T2 chain: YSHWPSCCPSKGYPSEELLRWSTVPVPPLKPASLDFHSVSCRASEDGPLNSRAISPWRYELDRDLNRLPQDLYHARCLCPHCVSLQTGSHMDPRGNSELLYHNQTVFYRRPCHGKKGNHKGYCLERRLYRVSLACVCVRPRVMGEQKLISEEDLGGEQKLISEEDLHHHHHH

[3] = biological target: T1, human IL-25 expressed with a C-terminal …; assay: SPR Biacore, captured mAb, 25°C;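 note: biacore 4000 SPR with IL-25-MMH as analyte over purified anti-IL-25 antibodies, association and dissociation rates derived from fitting sensorgrams to a 1:1 binding model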
Description: as §1

[4] = biological target: T3, rat IL-25 expressed with a C-terminal myc-myc-hexahistidine tag (rat); assay: SPR Biacore, captured mAb, 25°C and 37°C
T3 construct: also called rat IL-25-MMH
T3 chain: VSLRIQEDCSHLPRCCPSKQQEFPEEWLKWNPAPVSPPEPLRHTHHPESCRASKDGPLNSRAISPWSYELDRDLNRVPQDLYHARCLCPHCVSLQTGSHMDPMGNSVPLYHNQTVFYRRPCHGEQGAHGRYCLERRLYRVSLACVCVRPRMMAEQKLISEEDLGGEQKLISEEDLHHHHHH
Description: as §1

[5] = biological target: T4, mouse IL-25 expressed with a C-terminal myc-myc-hexahistidine tag (mouse); assay: SPR Biacore, captured mAb, 25°C and 37°C
T4 construct: also called mouse IL-25-MMH; mIL-25-MMH
T4 chain: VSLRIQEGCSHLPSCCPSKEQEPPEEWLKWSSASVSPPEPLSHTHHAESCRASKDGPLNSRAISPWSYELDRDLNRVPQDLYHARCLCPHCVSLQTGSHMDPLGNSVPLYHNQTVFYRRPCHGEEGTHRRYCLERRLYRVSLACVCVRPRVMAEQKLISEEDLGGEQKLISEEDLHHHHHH
Description: as §1

[6] = biological target: T5, rat IL-25 expressed with a C-terminal myc-myc-hexahistidine tag (rat); assay: SPR Biacore, antibody captured, 37C
T5 construct: also called Rat IL-25-MMH
T5 chain: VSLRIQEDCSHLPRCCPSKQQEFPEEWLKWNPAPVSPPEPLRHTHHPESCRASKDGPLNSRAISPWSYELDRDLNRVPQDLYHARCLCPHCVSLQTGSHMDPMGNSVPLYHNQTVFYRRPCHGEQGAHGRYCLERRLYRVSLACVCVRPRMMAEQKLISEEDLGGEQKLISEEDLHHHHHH
Description: as §1

[7] = biological target: T6, human IL-25 expressed with a C-terminal myc-myc-hexahistidine tag (human); assay: cell-based or functional assay
T6 chain: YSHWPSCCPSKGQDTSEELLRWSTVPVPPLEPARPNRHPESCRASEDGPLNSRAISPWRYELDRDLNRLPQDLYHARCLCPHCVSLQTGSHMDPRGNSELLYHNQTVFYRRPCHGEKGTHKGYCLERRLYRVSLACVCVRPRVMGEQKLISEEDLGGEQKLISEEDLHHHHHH

[8] = biological target: T7, monkey IL-25 expressed with a C-terminal myc-myc-hexahistidine tag (M. fascicularis (cynomolgus monkey)); assay: SPR Biacore, antibody captured, 37C;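 note: biacore 4000 surface plasmon resonance biosensor measuring binding of IL-25-MMH to purified anti-IL-25 antibodies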
T7 construct: also called Monkey IL-25-MMH; MfIL-25-MMH
T7 chain: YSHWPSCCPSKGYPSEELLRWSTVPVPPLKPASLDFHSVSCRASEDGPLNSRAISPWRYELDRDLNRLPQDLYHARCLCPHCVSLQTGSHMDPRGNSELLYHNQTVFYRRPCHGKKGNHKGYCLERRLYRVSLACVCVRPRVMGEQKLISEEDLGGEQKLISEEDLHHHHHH
Description: as §1

[9] = biological target: T5, rat IL-25 expressed with a C-terminal …; assay: SPR Biacore, antibody captured, 25C;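 for 100 nM Rat IL-25-MMH Bound (RU): purified anti-IL-25 antibodies were tested by real-time surface plasmon resonance on a Biacore 4000, with rate constants obtained from sensorgram fits to a 1:1 binding model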
[10] = biological target: T6, human IL-25 expressed with a C-terminal …; assay: cell-based or functional assay
[11] = biological target: T7, monkey IL-25 expressed with a …; assay: cell-based or functional assay
[12] = biological target: T6, human IL-25 expressed with a C-terminal …; assay: BLI Octet, hIL-25-MMH captured on anti-Penta-His sensor, 25C
Description: Binding competition between anti-IL-25 monoclonal antibodies was determined using a real time, label-free bio-layer interferometry assay on an Octet QK384 biosensor (Pall ForteBio Corp.).
The biosensors were washed in HBST kinetics buffer in between every step of the experiment. The real-time binding response was monitored during the course of the experiment and the binding response at the end of every step was recorded.

[13] = biological target: T8, mouse IL-25 expressed with a C-terminal myc-myc-hexahistidine tag (mouse); assay: SPR Biacore, antibody captured, 37C;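 note: Real-time sensorgrams of IL-25-MMH binding to purified anti-IL-25 antibodies, rate constants obtained by fitting a 1:1 binding model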
T8 construct: also called Mouse IL-25-MMH; mIL-25-MMH
T8 chain: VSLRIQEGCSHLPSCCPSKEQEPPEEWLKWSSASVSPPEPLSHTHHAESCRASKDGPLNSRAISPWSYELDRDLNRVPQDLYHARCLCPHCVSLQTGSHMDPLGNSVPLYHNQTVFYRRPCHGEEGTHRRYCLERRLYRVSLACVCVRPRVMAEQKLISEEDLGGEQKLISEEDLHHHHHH

[14] = biological target: T6, human IL-25 expressed with a C-terminal …; assay: competition ELISA, 2 nM hIL-25-MMH binding to coated hIL-17RB-hFc; (*) below theoretical bottom of the assay
Description: (§2) Data analysis was performed using a sigmoidal dose-response model within Prism™ software (GraphPad). […] The absorbance values of the wells containing the highest concentration for each antibody were used to determine the percent maximum blockade.

[15] = biological target: T6, human IL-25 expressed with a C-terminal …; assay: competition ELISA, 2 nM hIL-25-MMH binding to coated hIL-17RB-hFc
Description: as §2

[16] = biological target: T8, mouse IL-25 expressed with a C-terminal …; assay: SPR Biacore, antibody captured, 25C;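 for 100 nM Rat IL-25-MMH Bound (RU): purified anti-IL-25 antibodies were tested by real-time surface plasmon resonance on a Biacore 4000, with rate constants obtained from sensorgram fits to a 1:1 binding model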

Binder	100 nM Human IL-25-MMH Bound (RU) [1] [RU]	Kd [1] [nM]	koff [1] [s⁻¹]	kon [1] [M⁻¹ s⁻¹]	t½ [1] [h]	100 nM Monkey IL-25-MMH Bound (RU) [2] [RU]	Kd [2] [nM]	koff [2] [s⁻¹]	kon [2] [M⁻¹ s⁻¹]	t½ [2] [h]	100 nM Human IL-25-MMH Bound (RU) [3] [RU]	Kd [3] [nM]	koff [3] [s⁻¹]	kon [3] [M⁻¹ s⁻¹]	t½ [3] [h]	binding result [4]	binding result [5]	other results
H4H10903P (antibody, human IgG4, V domains shown) VH: QVQLQESGPGLVKPSETLSLTCTVSGGSINSYSWTWIRQPPGKGLEWIGNIYNSENTNYNPSLKSRVTISVDTSKSQVSLKLNSVTAADTAVYYCARTYNWNYEIGAMGVWGQGTTVTVSS VL: not shown	65	0.0508	7.75e-05	1.53e+06	2.48	57	≤ 0.00871	≤ 1e-05	1.15e+06	19.2	54	0.0192	1.73e-05	897000	11.2	no binding (tested: 100 nM)	no binding (tested: 100 nM)	
H4H10906P (antibody, human IgG4, V domains shown) VH: QVQLQESGPGLVKPSETLSLTCTVSGGSISSYYWSWIRQPPGKGLEWIGFIYYSGSTNYNPSLKSRVTISVDTSKNQFSLKLSSVTAADTAVYYCARHDSDYELYGMDVWGQGTTVTVSS VL: not shown	72	0.0529	0.000154	2.9e+06	1.25	61	0.0141	2.95e-05	2.09e+06	6.52	61	0.0264	4.32e-05	1.64e+06	4.47	no binding (tested: 100 nM)	no binding (tested: 100 nM)	
H4H10901P (antibody, human IgG4, V domains shown) VH: QLQLQESGPGLVRPSETLSLTCSVSSGSIRSSNYYWGWIRQPPGKGLEWIGNIYYSGNTFYNPSLKGRVTISVDTSKNQFSLKLSSVTATDTAVYYCARQGYSDYELNWFDPWGQGTLVTVSS VL: DIVMTQSPDSLVLSLGERATFNCKSSQSVLDSSNNKNYLAWYQQKPGQPPKLLIYWASTRESGVPDRFSGSGSGTDFSLTISSLQAEDVALYYCQQFYNSPWTFGQGTKVEIK	65	0.0651	0.000208	3.19e+06	0.933	64	0.0116	3.06e-05	2.63e+06	6.28	62	0.0254	5.79e-05	2.28e+06	3.32	no binding (tested: 100 nM)	no binding (tested: 100 nM)	
H4H10862P (antibody, human IgG4, V domains shown) VH: QVQLQESGPGLVKPSETLSLTCTVSGGSISSYFWSWIRQAPGKGLEWIGFIDYSGSTNYNPSLKSRVTISVDTSKNQFSLKLNSVTAADTAVYYCARQEIINFELNWFDPWGQGTLVTVSS VL: not shown	72	0.0879	0.00021	2.39e+06	0.917	58	0.0255	5.1e-05	2e+06	3.77	56	0.0344	6.49e-05	1.88e+06	2.97	no binding (tested: 100 nM)	no binding (tested: 100 nM)	
H4H10861P (antibody, human IgG4, V domains shown) VH: QVQLQESGPGLVKPSETLSLTCTVSGASISNYYWSWIRQPPGKGLEWIGYIFYSGNTNYNPSLKSRVTISVDTSKNQFSLKLSSVTAADTAVYYCARVRFSDYELNWFDPWGQGTLVTVSS VL: DIVMTQSPDSLAVFLGERATINCRSSQSVFLGSNNKNYLAWYQQKPGQPPKLLIYWASSRESGVPDRFSGSGSGTDFTLTINSLQAEDVAVYYCQQYFITPLTFGGGTKVEIK	63	0.0268	7.8e-05	2.91e+06	2.47	48	0.00454	1.48e-05	3.26e+06	13	47	0.0116	2.34e-05	2.01e+06	8.22	no binding (tested: 100 nM)	no binding (tested: 100 nM)	
H4H10900P (antibody, human IgG4, V domains shown, H4H prefix = human IgG4 Fc) VH: QVQLQESGPGLVRPSETLSLICTVSGGSINSYYWSWIRQPPGKGLEWIGYIYYSGSTNYNPSLKSRVTISGDTSKNQFSLKLSSVTAADTAVYYCARGVIWNYELREFDYWGQGTLVTVSS VL: not shown																		100 nM Rat IL-25-MMH Bound (RU) [6]: 2 RU; IC50 values of antibodies for blocking IL-5 release from Donor #727058-059 [7]: 0.0392 nM; IC50 values of antibodies for blocking IL-5 release from Donor #727060 [7]: 0.578 nM; 100 nM Monkey IL-25-MMH Bound (RU) [8]: 50 RU; Kd [8]: 0.0244 nM; koff [8]: 7.49e-05 s⁻¹; kon [8]: 3.07e+06 M⁻¹ s⁻¹; t½ [8]: 2.57 h; 100 nM Rat IL-25-MMH Bound (RU) [9]: 0 RU; binding result [9]: no binding (tested: 100 nM); IC50, luciferase reporter cells, 5 pM hIL-25-MMH [10]: 3.1e-11 M; IC50, luciferase reporter cells, 12 pM MfIL-25-MMH [11]: 2.2e-11 M; 50 ug/mL mAb-1 Binding (nm) [12]: 0.68 nm; 100 nM Mouse IL-25-MMH Bound (RU) [13]: 2 RU; IC50 [14]: 0.2 nM; % Maximum blocking of 200 nM antibody [15]: 90%; 100 nM Mouse IL-25-MMH Bound (RU) [16]: 0 RU; binding result [16]: no binding (tested: 100 nM)
H4H10864P (antibody, human IgG4, V domains shown, H4H prefix = human IgG4 Fc) VH: QVQLQESGPGLVKPSETLSLTCTVSGGSISNYFWSWIRQPPGKGLEWIGFNYNSGSTNYNPSLKSRVTISVDTSKNQFSLKLSSVTAADTAVYYCARGYNWNYEIAWFDPWGQGTLVTVSS VL: not shown																		100 nM Rat IL-25-MMH Bound (RU) [6]: 1 RU; IC50 values of antibodies for blocking IL-5 release from Donor #727058-059 [7]: 1.15 nM; IC50 values of antibodies for blocking IL-5 release from Donor #727060 [7]: 0.677 nM; 100 nM Monkey IL-25-MMH Bound (RU) [8]: 94 RU; Kd [8]: 0.0436 nM; koff [8]: 0.00019 s⁻¹; kon [8]: 4.35e+06 M⁻¹ s⁻¹; t½ [8]: 1.02 h; 100 nM Rat IL-25-MMH Bound (RU) [9]: -1 RU; IC50, luciferase reporter cells, 5 pM hIL-25-MMH [10]: 3.6e-11 M; IC50, luciferase reporter cells, 12 pM MfIL-25-MMH [11]: 2.6e-11 M; 50 ug/mL mAb-1 Binding (nm) [12]: 0.84 nm; 100 nM Mouse IL-25-MMH Bound (RU) [13]: 1 RU; IC50 [14]: 0.26 nM; % Maximum blocking of 200 nM antibody [15]: 88%; 100 nM Mouse IL-25-MMH Bound (RU) [16]: -1 RU
